Substrate in the data set: CCCCCC(O)/C=C/C=O
Description: LC/MS of GSHNE conjugate, initial rate. The format is biochemical, Oncorhynchus kisutch. The conditions noted are these: 1 mM GSH, 30 °C, 10–150 μM HNE.

B1: OlfGST pi; OkGST pi; GST pi (Oncorhynchus kisutch) (protein)
chain: MGPYTITYFGVRGRCGAMRIMMADQGQEWKEILMDFADWTKGDLKASCVFGQLPKFEDGGLVLYQSNAILRHLGRNHDAYGKDGKEAARIDMMCDGVEDLRLKYGKMIYQEYDTGKDQYIKDLPNHLDKFEAVMAKNKTGFLVGDKPSFADYSLFEVLLNHLVLCSSCLDTSPSLKSFVEKMSARPKIKAFLGSDAYKKLPINGNGKQ
Take B1: the Km is 160 ± 60 µM, the Vmax came out at 0.5 µmol/min/mg, the kcat is 0.37 ± 0.09 s⁻¹ and the kcat/Km came out at 2300 ± 1100 M⁻¹ s⁻¹.

As a reminder, the Km is the concentration of substrate that gives half-maximal velocity. Broadly, the Vmax is the rate approached at saturating substrate. One may read the kcat as the maximal rate divided by the concentration of active sites. The kcat/Km is the turnover number divided by the Michaelis constant.
